Assay [1] addresses T1, Tie2 receptor on HUVEC (human, UniProt Q02763 23-1124).
T1 construct: whole, on cells; also called TEK; Tie2 receptor tyrosine kinase
The assay is described as follows: summary sentence of Example 3 (co-IP and HUVEC activation).

In assay [2] the target is T1, Tie2 receptor on HUVEC. Put plainly: cell-based or functional assay.

Results on two molecules are retold here after patent US20230091105A1 (NORTHWESTERN UNIVERSITY, published 2023).

T1 sequence (Q02763 23-1124): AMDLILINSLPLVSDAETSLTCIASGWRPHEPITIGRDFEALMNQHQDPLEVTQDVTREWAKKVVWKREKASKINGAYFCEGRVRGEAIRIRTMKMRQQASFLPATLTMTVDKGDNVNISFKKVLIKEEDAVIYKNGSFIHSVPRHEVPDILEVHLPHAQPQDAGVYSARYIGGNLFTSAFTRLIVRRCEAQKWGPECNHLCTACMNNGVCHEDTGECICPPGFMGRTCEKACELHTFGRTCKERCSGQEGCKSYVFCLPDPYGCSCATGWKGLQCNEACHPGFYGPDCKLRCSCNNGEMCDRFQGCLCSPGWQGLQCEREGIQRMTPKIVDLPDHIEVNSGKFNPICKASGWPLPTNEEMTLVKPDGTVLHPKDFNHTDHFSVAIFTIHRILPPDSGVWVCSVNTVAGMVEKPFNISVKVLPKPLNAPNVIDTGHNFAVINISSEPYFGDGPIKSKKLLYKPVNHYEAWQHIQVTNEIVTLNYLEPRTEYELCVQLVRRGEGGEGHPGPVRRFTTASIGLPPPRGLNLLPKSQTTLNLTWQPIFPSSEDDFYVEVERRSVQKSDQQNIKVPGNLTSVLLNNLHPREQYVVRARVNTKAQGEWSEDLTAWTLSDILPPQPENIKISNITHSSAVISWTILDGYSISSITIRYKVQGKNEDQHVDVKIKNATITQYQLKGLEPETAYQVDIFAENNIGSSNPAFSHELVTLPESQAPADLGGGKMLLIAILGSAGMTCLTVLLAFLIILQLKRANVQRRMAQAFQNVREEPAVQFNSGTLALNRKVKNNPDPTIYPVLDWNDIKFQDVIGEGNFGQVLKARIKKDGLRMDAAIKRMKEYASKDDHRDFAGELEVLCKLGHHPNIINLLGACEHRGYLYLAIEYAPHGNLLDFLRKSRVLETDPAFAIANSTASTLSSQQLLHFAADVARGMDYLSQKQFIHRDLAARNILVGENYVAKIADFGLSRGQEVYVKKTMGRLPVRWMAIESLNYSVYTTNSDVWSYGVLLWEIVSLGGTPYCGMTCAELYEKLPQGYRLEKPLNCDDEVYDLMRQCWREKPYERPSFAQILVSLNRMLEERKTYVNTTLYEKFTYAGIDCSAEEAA

B1: C4BP-ANG1 (designed binder, not shown: small tags and cut ends)
chain: ETPEGCEQVLTGKRLMQCLPNPEDVKMALEVYKLSLEIEQLELQRDSARQSTLDKELGGGGSKPFRDCADVYQAGFNKSGIYTIYINNMPEPKKVFCNMDVNGGGWTVIQHREDGSLDFQRGWKEYKMGFGNPSGEYWLGNEFIFAITSQRQYMLRIELMDWEGNRAYSQYDRFHIGNEKQNYRLYLKGHTGTAGKQSSLILHGADFSTKDADNDNCMCKCALMLTGGWWFDACGPSNLNGMFYTAGQNHGKLNGIKWHYFKGPSYSLRSTTMMIRPLDF
notes: Heptamer through disulfide-bridged C4BP segment; also called C4BP-ANG1 chimeric fusion protein
As to B1, the binding result with Tie2 receptor on HUVEC [1] was “binds”.

B2: ANG1-C4BP (designed binder, not shown: small tags and cut ends)
chain: KPFRDCADVYQAGFNKSGIYTIYINNMPEPKKVFCNMDVNGGGWTVIQHREDGSLDFQRGWKEYKMGFGNPSGEYWLGNEFIFAITSQRQYMLRIELMDWEGNRAYSQYDRFHIGNEKQNYRLYLKGHTGTAGKQSSLILHGADFSTKDADNDNCMCKCALMLTGGWWFDACGPSNLNGMFYTAGQNHGKLNGIKWHYFKGPSYSLRSTTMMIRPLDFGGGGSETPEGCEQVLTGKRLMQCLPNPEDVKMALEVYKLSLEIEQLELQRDSARQSTLDKEL
On to B2, for which the “phosphorylation level of AKT (pAKT) in HUVEC treated for 20 minutes, EC50” value in the assay with Tie2 receptor on HUVEC [2] is 87 ng/mL.
